How the values were obtained:
[1] = molecular target: Luteinizing hormone (LH) (UniProt P01215;P01229 25-116;21-141); assay: electrochemical strand displacement (SWV); 10 pM-10 uM LH; detection limit 10 pM (not a Kd); displaces signal probe; 10 mM phosphate buffer, 1 M NaCl, pH 7.4, room temperature; 30 nM aptamer/signal duplex (prepared in 20 mM Tris, 50 mM MgCl2, pH 8.0, diluted 60 uL into 1940 uL PBS); details: protein: commercial; copies: 1;1; assayed prehybridized 1:1 with signal probe S3 (3'-MB), complementary to aptamer nt 1-15; S3 is displaced by target; G-quadruplex predicted
Chain of Luteinizing hormone (LH) (P01215 25-116, chain 1 of 2): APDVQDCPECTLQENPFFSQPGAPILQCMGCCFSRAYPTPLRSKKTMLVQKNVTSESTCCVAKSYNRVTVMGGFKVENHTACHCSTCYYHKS
Chain of Luteinizing hormone (LH) (P01229 21-141, chain 2 of 2): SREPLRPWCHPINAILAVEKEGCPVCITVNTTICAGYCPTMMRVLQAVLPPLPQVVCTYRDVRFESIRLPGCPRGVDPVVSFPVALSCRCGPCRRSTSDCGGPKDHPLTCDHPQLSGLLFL

[2] = molecular target: Neutrophil gelatinase-associated lipocalin (NGAL) (UniProt P80188 21-198); assay: electrochemical strand displacement (SWV); 100 nM NGAL; signal gain 200.85%; 10 mM phosphate buffer, 1 M NaCl, pH 7.4, room temperature; 30 nM aptamer/signal duplex (prepared in 20 mM Tris, 50 mM MgCl2, pH 8.0, diluted 60 uL into 1940 uL PBS); details: protein: commercial; assayed prehybridized with NGAL-SP S7 (3'-MB), displaced by target; printed S7 only partly complementary
Chain of Neutrophil gelatinase-associated lipocalin (NGAL) (P80188 21-198): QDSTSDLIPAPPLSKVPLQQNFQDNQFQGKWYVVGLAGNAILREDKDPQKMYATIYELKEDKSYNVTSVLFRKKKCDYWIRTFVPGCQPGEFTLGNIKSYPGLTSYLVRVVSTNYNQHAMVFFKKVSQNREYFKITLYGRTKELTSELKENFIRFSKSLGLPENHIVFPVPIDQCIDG

[3] = molecular target: Nucleolin (NCL) (UniProt P19338 2-710); assay: electrochemical strand displacement (SWV); 100 nM NCL; signal gain 357.19%; 10 mM phosphate buffer, 1 M NaCl, pH 7.4, room temperature; 30 nM aptamer/signal duplex (prepared in 20 mM Tris, 50 mM MgCl2, pH 8.0, diluted 60 uL into 1940 uL PBS); details: protein: commercial; assayed prehybridized with NCL-SP S10 (3'-MB), displaced by target; printed S10 only partly complementary
Chain of Nucleolin (NCL) (P19338 2-710): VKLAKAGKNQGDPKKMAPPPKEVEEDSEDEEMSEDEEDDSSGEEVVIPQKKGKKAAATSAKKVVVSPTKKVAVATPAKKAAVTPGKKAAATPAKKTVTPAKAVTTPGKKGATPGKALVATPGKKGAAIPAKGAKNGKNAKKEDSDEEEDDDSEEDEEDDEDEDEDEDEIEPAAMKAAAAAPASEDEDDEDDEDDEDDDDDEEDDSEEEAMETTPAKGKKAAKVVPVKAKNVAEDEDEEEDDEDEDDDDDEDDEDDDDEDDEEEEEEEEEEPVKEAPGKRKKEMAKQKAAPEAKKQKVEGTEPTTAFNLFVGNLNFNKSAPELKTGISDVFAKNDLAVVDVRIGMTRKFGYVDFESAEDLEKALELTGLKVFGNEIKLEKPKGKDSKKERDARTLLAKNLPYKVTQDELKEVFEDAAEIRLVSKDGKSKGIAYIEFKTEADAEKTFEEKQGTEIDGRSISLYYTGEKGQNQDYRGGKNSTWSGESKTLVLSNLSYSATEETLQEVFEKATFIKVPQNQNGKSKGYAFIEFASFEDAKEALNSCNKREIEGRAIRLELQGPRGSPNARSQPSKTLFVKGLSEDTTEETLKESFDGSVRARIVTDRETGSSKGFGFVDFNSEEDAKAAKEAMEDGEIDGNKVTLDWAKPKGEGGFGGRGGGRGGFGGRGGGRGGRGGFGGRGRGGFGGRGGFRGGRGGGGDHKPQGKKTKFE

TATGGTATGCTGTGTGGTATGGGGTGGCGTGCTCT (structured_DNA) [LH aptamer]
binding result [1]: binds

B1: NGAL aptamer (ssDNA)
DNA: AGCAGCACAGAGGTCAGATGGCGCTGGATAGCAAGATCACGTTATCATCGTAAACCCTATGCGTGCTACCGTGAA
binding result [2]: binds

GGTGGTGGTGGTTGTGGTGGTGGTGGTTTTTT (ssDNA) [Nucleolin aptamer]
binding result [3]: binds

From publication PMC8867190, “Ultrasensitive DNA‐Biomacromolecule Sensor for the Detection Application of Clinical Cancer Samples”
